Laboratory results reported in the MegaScale stability set (Tsuboyama et al. 2023).

B1: EEHEE_rd4_0647 (parent)
chain: MQVTWGNVTVTFSNPEEAKKYAEKVARKLGGQVELHNGQFRIK
B2: EHEE_rd3_0053 (parent)
chain: TYTFKVDNKDQAKKAAKWAKKLGLSFQIEKHGDTFKITVQ

Variants of: B1
Experiment: folding stability dG (cDNA display proteolysis); higher = more stable
Conditions: PBS, room temperature

Folding stability dG [kcal/mol], by site and new letter:
W5: C 3.09, E 0.581, A 1.17, I 2.61, L 2.12, F 2.53, K 0.547, M 1.83, G 0.431, H 2.15, D 1.03
V3: G 0.57, A 0.626, I 1.61, Y 0.842, S 0.229, W 0.9, N 0.227, E 0.263, Q 0.078, L 1.35, R 0.122, M 1.05, F 1.97, T 0.641, K 0.404, D 0.045, C 1.8, H 0.343, P 0.068
M1: V 3.11, H 2.9, Q 2.03, G 1.95, N 2.45, P 2.09, W 3.72, F 3.34, D 1.42, L 2.78, A 2.6, R 2.57, T 3.28, I 3.13, S 2.61, K 2.27, E 1.3, C 3.6, Y 3.45
T4: D 0.672, H 2.54, W 2.11, M 2.58, A 2.49, R 2.76, Q 2.49, N 2.18, Y 2.21, E 1.66, F 2.24, K 2.58, I 2.97, S 2.81, P 0.446, L 2.6, V 3.15, G 1.46
Q2: N 2.49, K 2.94, P 1.45, C 3.07, E 2.52, L 2.55, R 2.72, T 3.09, V 2.86, D 2.46, W 1.97, G 2.12, F 2.16, S 3.04, Y 2.23, M 2.71, I 2.82, H 2.3, A 2.64

Variants of: B2
Experiment: as above
Conditions: PBS, room temperature

Folding stability dG [kcal/mol]: each site, then its substitutions
Q40: N 2.4, C 2.75, I 2.49, H 2.56, T 2.62, D 1.98, R 2.59, E 2.19, W 3.28, P 1.14, K 2.45, G 2.55, M 2.6, A 2.46, F 3.05, V 2.41, S 2.77, L 2.41, Y 3
F35: V 1.16, T 0.632, W 2.75, Y 2.75
V39: C 1.68, M 1.86, F 2.06, Y 1.68, N -0.981, Q -0.762, D -0.839, S -0.061, H -0.097, A 0.718, I 2.82, W 1.56, T 0.975, R -0.567, P -0.963, L 2.23, G -0.471
T38: L 1.78, E 1.1, F 1.71, K 1.65, D 0.562, R 1.72, Q 1.57, N 1.09, H 1.8, G 0.192, M 1.83, I 2.34, V 2.01, S 1.81, W 1.76, Y 1.77, A 1.3
I37: V 2.35, M 1.51, W 0.115, L 1.47, Y 0.365, A 0.507, F 2.15
K36: R 2.53, N 2.16, M 2.94, F 3.18, Q 2.66, W 3.32, E 2.45, D 1.65, V 3.14, T 2.88, Y 3.17, I 3.28, S 2.52, G 1, H 2.66, A 2.28, L 3.18
